From patent US20030073218A1, “High affinity inhibitors for target validation and uses thereof” (Princeton University, priority 1999, published 2003)

Tested on: T1, Nc1ncnc2c1ncn2[C@@H]1O[C@H](COP(=O)(O)OP(=O)(O)OP(=O)(O)O)[C@@H](O)[C@H]1O
T1 construct: made in house; host or cells: Sf9 insect cells, baculovirus, co-infected with Cak1-HA3 (Cdc28-His6); bacteria (MBP-Clb2)
Test: purified protein, by the assay type
Assay type: biochemical, Saccharomyces cerevisiae
Settings: other: Cdc28 · MBP-Clb2; pH 7.4; 23.0 °C

Sequence of Cdc28 · MBP-Clb2 (Saccharomyces cerevisiae S288C) (chain, as listed by the source S288C): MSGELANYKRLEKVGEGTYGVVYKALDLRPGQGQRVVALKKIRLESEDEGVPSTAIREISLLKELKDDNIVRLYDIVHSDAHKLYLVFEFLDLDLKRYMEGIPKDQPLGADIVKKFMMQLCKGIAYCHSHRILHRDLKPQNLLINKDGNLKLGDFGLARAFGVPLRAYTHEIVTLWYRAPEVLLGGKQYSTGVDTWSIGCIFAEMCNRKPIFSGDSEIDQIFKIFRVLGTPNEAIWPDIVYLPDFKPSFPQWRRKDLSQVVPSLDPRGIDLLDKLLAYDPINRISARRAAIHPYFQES

## Cdc28 · MBP-Clb2 (Saccharomyces cerevisiae S288C)
  Km: 35 µM
  kcat: 2.2 s⁻¹
  kcat/Km: 62170 M⁻¹ s⁻¹
